Data on one molecule can be found in doi:10.1101/2025.05.01.651538.

In this assay the target is wild-type unmodified 147bp nucleosome (nucleosome core particle, human histones). Kind of assay: EMSA. To be noted: chain shown with the change; 0-32 µM KDM5A^MutR titrated against 147bp nucleosome.

B1: KDM5A^CAT (KDM5A 1–801, minimal catalytically active construct), P29375 R210A; R217A; R219A; R220A; R232A; R264A; R265A; R266A; R271A; R280A; R282A (protein)
chain: MAGVGPGGYAAEFVPPPECPVFEPSWEEFTDPLSFIGRIRPLAEKTGICKIRPPKDWQPPFACEVKSFRFTPRVQRLNELEAMTRVRLDFLDQLAKFWELQGSTLKIPVVERKILDLYALSKIVASKGGFEMVTKEKKWSKVGSRLGYLPGKGTGSLLKSHYERILYPYELFQSGVSLMGVQMPNLDLKEKVEPEVLSTDTQTSPEPGTAMNILPKATAAVKTQSESGDVSANTELKKLQIFGAGPKVVGLAMGTKDKEDEVTAAAKVTNASDAFNMQMAQAKGTLSVNFVDLYVCMFCGRGNNEDKLLLCDGCDDSYHTFCLIPPLPDVPKGDWRCPKCVAEECSKPREAFGFEQAVREYTLQSFGEMADNFKSDYFNMPVHMVPTELVEKEFWRLVSSIEEDVIVEYGADISSKDFGSGFPVKDGRRKILPEEEEYALSGWNLNNMPVLEQSVLAHINVDISGMKVPWLYVGMCFSSFCWHIEDHWSYSINYLHWGEPKTWYGVPSHAAEQLEEVMRELAPELFESQPDLLHQLVTIMNPNVLMEHGVPVYRTNQCAGEFVVTFPRAYHSGFNQGYNFAEAVNFCTADWLPIGRQCVNHYRRLRRHCVFSHEELIFKMAADPECLDVGLAAMVCKELTLMTEEETRLRESVVQMGVLMSEEEVFELVPDDERQCSACRTTCFLSALTCSCNPERLVCLYHPTDLCPCPMQKKCLRYRYPLEDLPSLLYGVKVRAQSYDTWVSRVTEALSANFNHKKDLIELRVMLEDAEDRKYPENDLFRKLRDAVKEAETCASVAQLL
In turn, B1 had a Kd of 14 µM.
